In the nanobody polyreactivity screen of Harvey et al. (2022):

Assay: yeast display, Sf9 membrane polyspecificity reagent, FACS + sequencing; frameworks hold sequencing errors
Summary of the method: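 A synthetic nanobody library was expressed on Saccharomyces cerevisiae BJ5465 by galactose induction for 36–48 hours. The library was stained for 1 hour at 4 °C with 10% biotinylated, detergent-solubilized Sf9 membrane reagent and enriched with streptavidin microbeads before FACS. Low and high (top ~1%) gates were set on anti-HA fluorescence for expression and streptavidin fluorescence for reagent binding, and each polyreactivity label reflects the gate of origin.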

Row | Sequence | polyreactivity (PSR sort gate)
1 | QVQLVESGGGLVQAGGSLRLSCAASGRTFYYYVMGWYRQAPGKERELVAAINSGGNTNYADSVKGRFTISRDNAKNTVYLQMNSLKPEDTAVYYCAADHYRSFRYFESSSTHDYWGQGTQVNVSS | low polyreactivity
2 | QVQLVESGGGLVQAGGSLRLSCAASGITFNLYAMGWYRQAPGKERELVASINSGGSPYYADSVKGRFTISRDNAKNTVYLQMNSLKPEDTAVYYCAAETSYYYRGYWKSYDYWGQGTQVTVSS | high polyreactivity
3 | QVQLVESGGGLVQAGGSLRLSCAAYGRIFLGYAMGWYIQAPGKERELVAVISYSGTRTYYADSVKGRFTISRDNAKNTVYLQMNSLKPEDTAVYYCNARANGFKDGYWGQGTQVTVSS | high polyreactivity
4 | QVQLVESGGGLVQAGGSLRLSGAATGSIFKIMGWYRQAPGKERELVAAISSSVGNTYYADSVKGRFTISRDNAKNTVYLQMNSLKPEDTAVYYCAAQSKYYQYYSWGQRTQVTVSS | high polyreactivity
5 | QVQLVESWGGLVQAGGSLRLSCAASGRIFYDYAMGWYRQAPGKERELVAAISKGGGSTYYADSVKGRFTISRDNAKKTVYLQMNSLKAEDTAVYFCAASTSHTTDTRYDYWGQGTQVTVSS | low polyreactivity
6 | QVQLVESGGGLVQAGGSLRLSFAASGRIIGYYAMGWYRQAPGKERELVAAITRGGSTNYADSVKGRFTISRDNAKNTVYLQMNSLKPEDTAVYYCAADLARYGKRYDYWGQGTQVTVSS | low polyreactivity
7 | QVQLIESGGGLVQAGGSLRLSCAASGSIFYNNTMGWYRQAPGKERELVATIRTSGGSTYADSVKGRYTISRDNAKNTLYLQMNSLKPEDTAVYYCAVRRYRSSSYYYWGQGTQVTVSS | high polyreactivity
8 | QVQLVESGGGLVQAGGSLRLSCAASGFIFSNYAMGWYRQAPGKERELVAAISWSGTRTYYADSVKGRFTISRDNAKNTVYLQMNSLKPEDTAVYYCAAYGVYLYDYWGQGTQVTVSS | low polyreactivity
9 | QVQRGESGGGLVQAGGSLRLSCAASAIIIYYYAMGCYRQAPGNERELVAGISYSGGSTYADSVKGRFTISRDNAKLTVYLQMNSLKPEDTAVYYCAAEYEYGGHWYDYWGQGTQETVSS | low polyreactivity
10 | QVQLVESGGGLVQAGGSLRLSCAASGYIFRGYVMGWYRQAPGKERELVAAITSRGDSTYYADSVKGRFTISRDNAKNTVYLQMNSLKPEDTAVYYCNAVHYYVEYDYWGQGTEVTVSS | high polyreactivity
11 | QVQLVESGGGLVQAGGSLRLSCAASGIIFYGYAMGWYRQAPGKERELVAAISRSGGSTYYADSVKGRFTISRDNAKNTVYLQMNSLKPEDTAVYYCAAVRIRPLRYYYWGQGTQVTVSS | high polyreactivity
12 | QVQLVESGGGLVQAGGSLRLSCAASGSIFAKYAMGWYRQAPGKESEFVAAIRASGGRTYYADSVKGRFTISRDNAKNTVYLQMNSLKPEDTAVYYCAAHLYSSRSDYDGPRSRRNYWGQGTQVTVSS | high polyreactivity
13 | QVQLVESGGGIVQAGGSLRLSCAASGRHFYTNAMGWYRQAPGKERELVATISGSVGNTYYEDSVKGRFTISRDNAKNTVYLQMNSLKPEDTAVYYCAKAYYTPYGVYVLHYYWGQGTQVTVSS | high polyreactivity
14 | QVQLVESGGGLFQAGGSLRLSCAASGSIFAWYAMGWYRQAPGKERELVAVITSGGSTNYADSVKGRFTISRDNEKNTVYLQMNSLKPEDTAVYYCAAGSYYSWYPFDYWGQGTQVTVSS | low polyreactivity
15 | QVQLVESGGGLVQAGGSLRLSCAASGFTFDSYDMGWYRQAPGKERELVAAISKSGGTTYYADSLKGRFTISRDNANNTVYLQMNSLKPEDTAVFYCAAGGPRGGYGRYYYWGPGTQVTVSS | high polyreactivity
16 | QVQLVESGGGLVQAGGSLRISCAASGSNFASYAMGWYRQAPGKERELVSVITSGGRTYYADSVKGRFTISRDNAKNTVYLQMNSLKPEDTAVYYCKAYLFFLNRVWSFDYWGQGTQVTVSS | high polyreactivity
17 | QVQLVESGGGLVQAGGSLRLSCAASGSTFPPYAMGWYRKATGNERELVADISSGVSTNYADSVNGRFTISRDNAKNTVYLQMHSLKPEDTAVYYCAADVYHYEWWYFSEFDYWGLGTQVTVSS | low polyreactivity
18 | QVQLVESGGGLVQAGGSLRLSCAASGSIFKYYAMGWYRQAPGKERELLADISFGGDSTYYADSVKGRFTISRDNAKNTVYLQMNSLIPEDTAVYYCAAAPYFWFVEYDYWGQGTQVTVSS | low polyreactivity
19 | QVQLVESGGGLVQAGGSLRLSCAASGIIFQFYAMGWYRQAPGKERELVAAISRSGGITHYADSVKGRFTISRDNAKNTVYLQMNSLKPEDTAVYYCNAVQPARFVGGFGTGVDYWGQGTQVTVSS | high polyreactivity
20 | QVQLVESGGGLVQAGGSLRLSCAASGRTLQTYVMGWYRQPPGKERELVAAITRGGGSTYYADSVKGRFTISRDNAKNTVYLQMNSLKPEDTAVYYCAASALRFNSRFSHWYNYWGQGTQVTVSS | high polyreactivity
21 | QVQLVESGGGLVQAGGSLRLSCAASGSTFGWYAMVWYRQAPGKERELVAAIRNNDGRTYYADSVKGRFTISRDNAKNTVYLQMNSLKPEDTAVYYCNADYRSHYLYDYWGQGTQVTVSS | low polyreactivity
22 | QVQLVESGGGLVQAGGSLRLSCAASGLTFQVYAMGWYRQAPGKERELVAGITRGGRTYYADSVKGRFTISRDNAKNTVYLQMNSLKPEDTAVYYCNADAPYGGPSWAKSRYEYWGQGTQVTVSS | low polyreactivity
23 | QVQLVESGGGLVQAGGSLRLSCAASGSTFSGYAMGWYRQAPGKEMEFVATISISGGSTYYADSVKGRFTISRDNAKNTVYLQMNSLKPEDTAVYYCNADYYFSWGSIEDYWGQGTQVTVSS | low polyreactivity
24 | QVQLVESGGGLVQAGGSLRLSCAASGSTFPSYTMGWYRQAPGKERELVAAITLSGGSTYYADSVNGRFTISRDNAKYTVYLQMNSLKPSDTAVYYCAAYSQRGYYWGQGTQVTVSS | low polyreactivity
25 | QVQLVESGGGLVQAGGSLRLSCAASGSTFAFYAMGWYRQAPGKERELVAAISRSGGRTYYADSVKGRFTISRDNAKNTVYLQMNSLKPEDTAVYYCAAVFRSGYLRYYYWGQGTQVTVSS | high polyreactivity
26 | QVQHVESGGGLVQAGGSLRLSCAASGGTFGDYAMGWSRQAPGKEREFVASITRSVSNTYYADSVKGRFTISRDNAKNTVYLQMNSLKPEDTAVYYCNADRWYPWRYIMDYWGQGTQVTVSS | low polyreactivity
27 | QVQLVESGGGLVQAGGSLRLSCAASGIILYRNGMGWYRQAPGKERELVAAISWSTGSTYYADSVKGRFTISRDNAKYTVYLQMNSLKPEDTAVYYCATDYVGYSFGMYYWGQGTQVTVSS | low polyreactivity
28 | QVQLVESGGGLVQAGGSLRLSCAASGSIFIYYAMGWKRQAPGKERELVAAISWRGGGTYYADSVKGRFTISRDNAKNTVYLQMNSLKPEDTAVYYCAADFYDPFDYWGQGTQVTVSS | low polyreactivity
29 | QVQLVESGGGLVQAGGSLRLSCAASGFTFQYYAMGWYRQAPGKERELVPSISWSGGSTYYADSVKGRFTISRDHAKNTVYFQMNSLKPEDTAVYYCADSVTYLFCSARFSAYGYWGQGTQVTVSS | high polyreactivity
30 | QDQLVESGGGLVQAGGSLRLSCAASGRIFGYYVMGWYRQAPGKERELVAAISGSGGSTYYADSVKGRFTISRDNAKNTVYLQMNSLKPEDTAVYYCNKRATRSRRRGYWGQGTQVTVSS | low polyreactivity
